Experimental data as given in patent publication US20230399384A1 (University of Texas, published 2023).
Numbering of substitutions follows the chain as printed.

B1: CoV2-26 (antibody, V domains shown)
VH: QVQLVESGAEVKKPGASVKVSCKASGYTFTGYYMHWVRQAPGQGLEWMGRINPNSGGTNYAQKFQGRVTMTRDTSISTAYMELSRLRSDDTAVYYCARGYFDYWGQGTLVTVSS
VL: QSALTQPPSASGTPGQRVTISCSGSSSNIGSNSVNWYQQVPGTAPKLLIYANDHRPSGVPDRFSGSKSGTSASLAISGLQSEDEADYYCAAWDNSLKGVVFGGGTKVTVL
B2: CoV2-24 (antibody, V domains shown)
VH: QVQLHQWGAGLLKPSETLSRTCAVYGGSFSGYYWTWIRQAPGKGLEWIGEINHGGSTRYNPSLESRVSISVDTSKKQFSLELRSVTAADTAIYYCARGLVGGGAFDIWGQGTMVTVSS
VL: NFMLTQPSSVSVAPGQTARITCGGDNIGSTGVHWYQQKPGQAPVLVVYDDTDRPSGIPERFSGSKSGNTAALTISGVEAGDEADFYCQVWDSSGHSYVFGTGTKVTVL
B3: CoV2-14 (antibody, V domains shown)
VH: EVQLQQSGPGLVKPSQTLSLTCAISGDSVSSNSAAWNWIRQSPSRGLEWLGRTYYRSKWYNDYAVSVKSRITINPDTSKNQFSLQLNSVTPEDTAVYYCAREEQQLVHDYYYYGMDVWGQGTMVTVSS
VL: QAVVTQPASVSGSPGQSITISCTGTSSDIGAYNYISWYQQHPGKAPKLIIYEVSNRPSGISYRFSGSKSGNTASLTISGLQAEDEANYYCSSYAGSISFGGGTKVTVL
B4: CoV2-06 (antibody, V domains shown)
VH: QVELQESGPGLVKPSGTLSLTCAVSGGSISSNNWWTWVRQPPGKGLEWIGEIHHSGGTNYNPSLKSRVTMSVDKSKNQFSLNLYSVTAADTAVYYCTRDRAGGTYSGFDFWGQGTLVTVSS
VL: QAVVTQPASVSGSPGQSITISCTGTSSDVGGYNYVSWYQQHPGKAPKLMIYDVSNRPSGVSNRFSGSKSGNTASLTISGLQAEDEADYYCSSYTSSSTVVFGGGTKVTVL
B5: CoV2-28 (antibody, V domains shown)
VH: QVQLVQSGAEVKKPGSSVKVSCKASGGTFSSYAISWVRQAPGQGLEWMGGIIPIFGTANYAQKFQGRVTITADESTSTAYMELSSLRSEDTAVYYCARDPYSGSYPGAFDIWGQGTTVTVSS
VL: B4 VL with S91N, S95R, V99S, G103T, K106Q, V107L
B6: CoV2-23 (antibody, V domains shown)
VH: QVQLVESGGGLVQPGRSLRLSCAASGFTFDDYAMHWVRQAPGKGLEWVSGISWNSGSIGYADSVKGRFTISRDNAKNSLYLQMNSLRAEDTALYYCAKDMDIWFGGGLDYWGQGTLVSVSS
VL: DVQMTQSPSSVSASVGDRVTITCRASEGIGNWLAWYQQKPGKAPKLLIYEASSLQSGVPSRFSGSGSGADFTLTISSLQPEDFGTYYCLQANSFPITFGRGTKLEIK
B7: 07 (antibody, V domains shown)
VH: EVQLVESGGGVFQPGRSLRLSCAASGFTFSDFGMHWVRQAPGKGLEWVAVTSHDGSSKFYADSVKGRFTVSRDNSKNKLYLEMNSLRVEDSAVYYCAKDSDNGYDADFFDYWGQGTLVTVSS
VL: not shown
notes: also called CoV2-07; phage clone 07
B8: CoV2-13 (antibody, V domains shown)
VH: QVQLQQSGAEVKKPGSSVKVSCKASGGNFRSHTFSWVRQAPGQGLEWMGEIMPRFGATNYAQKFQGRVTITADESTGTTYMELSSLKSHDTAVYFCAADLGSGRKFDSWAQGTLVSVSS
VL: NIQMTQSPSSLSASVGDRVTITCRASQGIGSDLGWYQQRPGKAPKRLIYAASSLQSGVPSRFSGSGSGTEFTLTISSLQPEDFATYYCLQHNSYPLTFGQGTKVEIK
B9: CoV2-09 (antibody, V domains shown)
VH: QVQLHQWGAGLLKPSETLSRTCAVYGGSFSGYYWTWIRQAPGKGLEWIGEINHGGSTRYNPSLESRVSISVDTSKKQFSLELRSVTAADTAIYYCARGYDTNWYGDGYNWFDPWDRGTLVTVSS
VL: QSALTQDPSVSVALGQTVRITCQGDSLRGSFASWYRQKPGQAPVLVIFGINNRPSGVPDRFSGSSSGNTASLTITGAQAEDEADYYCNSRESNSNRILFGGGTKVTVL
B10: CoV2-31 (antibody, V domains shown)
VH: B9 VH with H5Q, Y33S, R58N, I92V, D115G, R116Q
VL: QAVVTQPLSVSVALGQTAKIPCGGNNIGRKSVHWYQQKPGQAPVLVIYRDNNRPSGIPERFSGSNSGNTATLTISRAQAGDEADYYCQVWDSNTGVFGTGTKVTVL
B11: CoV2-16 (antibody, V domains shown)
VH: B9 VH
VL: QAVVTQPPSVSGTPGQRVTISCSGSSSSIGSNTVHWYQHLPGTAPKLLMYNNNERPSGVPARFSGSKSGTSASLVITGLQADDEAEYYCQSYDTGLSGHVFGSGTELTVL
B12: CoV2-34 (antibody, V domains shown)
VH: B9 VH with Y33S, I51V, S56K, R58N, V67L, K76N, I92V, D115G, R116Q, T121S
VL: DIQMTQSPSSLSASVGDRVTITCRASQKIDNFLNWYQQKPGKAPKLLIHGASNLQGGVSSRFSGSRSGTDFTLTITNLQPEDFATYYCQQSYNTPITFGQGTRLEIK
B13: CoV2-35 (antibody, V domains shown)
VH: B9 VH with Y33S, R58K, S68T, I92V, D115G, R116Q, T121S
VL: NFMLTQPASVSVAPGKTASITCGGDNIGTKSVHWYRQKPGQAPVLVIYYDSDRPSGIPERFSGSNSGNTATLTISRVEAGDEADYYCQVGDSSSHVVFGGGTKVTVL
B14: CoV2-03 (antibody, V domains shown)
VH: QVQLVESGAEMKKPGASVKVSCKTSGYTFTNSYIHWVRQAPGQGLEWMGWINPISGGTNYAQKFQGRVTMTRDTSINTAYMELSRLRSDDTAVYYCARDRGDYDYGWGTSPFYFDYWGQGTLVTVSS
VL: not shown
B15: CoV2-02 (antibody, V domains shown)
VH: B14 VH with L4M, E6Q, T124S
VL: AIQMTQSPSSLSASVGDRVTITCRASQPISKYLNWYQQKPGKAPKLLIYAASSLQSGVPSSFSGSGFGTDFTLTISNLQPEDFATYYCQQSNGIPLTFGGGTKVDIK
B16: CoV2-19 (antibody, V domains shown)
VH: B14 VH with E6Q
VL: AIQLTQSPSSLSASVGDRVTITCRTSHTVNSYLNWYQQEPGKAPKLLIYAASNLQSGVPSRFSGSGSGTDFSLTIHNLQPEDFATYYCQQSYRTPLTFGQGTKVDIK
B17: CoV2-22 (antibody, V domains shown)
VH: B14 VH with E6Q
VL: DVQMTQSPSSLSASVGDRVTITCRASQSISSYLNWYQQKPGKAPKLLIYGASSLESGVPSRFSGGGSGTDFTLTISSLQPEDFASYYCQQSYSIPFTFGPGTTVDIK
B18: CoV2-05 (antibody, V domains shown)
VH: EVQLVESGGGVARPGGSLRLSCAASGFTFDDYGMSWVRQVPGKGLEWVAGINWNGERIGYADSVKGRFTISRDNAKNSLYLQMNSLRAEDTALYYCARPSGDYVAWYFNLWGRGTLVTVSS
VL: QAALTQPRSVSGSPGQSVTISCTGTGSDVGPYKYVSWYQQHPGKAPKLMIYDVNERPSGVPDRFSGSKSGNTASLTISGLQAEDEADYYCGSYAGNNKWVFGGGTKLTVL

Assays:
[1] = molecular target: SARS-CoV-2 S protein on live SARS-CoV-2-mNG reporter virus (SARS-CoV-2, UniProt P0DTC2 14-1273); test: cell-based or functional assay
[2] = molecular target: T1, sCoV-RBD (Fc-tagged RBD of SARS-CoV S protein) (SARS-CoV; human, UniProt P59594 306-527); test: phage ELISA, scFv on phage
[3] = molecular target: T2, sCoV2-RBD (Fc-tagged RBD of SARS-CoV-2 S protein) (SARS-CoV-2; human, UniProt P0DTC2 319-541); test: ELISA titration on coated sCoV2-RBD
S protein of SARS-CoV = S protein of SARS-CoV (SARS-CoV, UniProt P59594 14-1195); test: ELISA, purified IgG1 on coated S protein
[4] = molecular target: SARS-CoV-2 RBD protein (Sino Biological, Cat: 40592-V08B) (SARS-CoV-2, UniProt P0DTC2 319-541); test: BLI (Octet), mAb on Protein A sensor
[5] = molecular target: T2, sCoV2-RBD (Fc-tagged RBD of SARS-CoV-2 …); test: BLI (Octet) blocking of ACE2 binding to captured sCoV2-RBD
[6] = molecular target: T1, sCoV-RBD (Fc-tagged RBD of SARS-CoV S …); test: ELISA, purified IgG1 on coated RBD protein

Binder | binding result [2] | EC50 [3] [nM] | binding result (S protein of SARS-CoV) | other results
B1 |  |  |  | NC50 (neutralisation of reporter SARS-CoV-2, Vero E6 cells) [1]: 0.41 µg/mL
B2 | no binding | 29.7 | no binding (tested: one concentration, not printed) | 
B3 |  |  |  | NC50 (neutralisation of reporter SARS-CoV-2, Vero E6 cells) [1]: 0.46 µg/mL
B4 |  |  |  | NC50 (neutralisation of reporter SARS-CoV-2, Vero E6 cells) [1]: 0.15 µg/mL
B5 | no binding | 130 | no binding (tested: one concentration, not printed) | 
B6 |  | 1.04 |  | 
B7 | no binding |  |  | 
B8 |  | 0.17 |  | Kd [4]: 50.7 nM; koff [4]: 0.00103 s⁻¹; kon [4]: 20300 M⁻¹ s⁻¹; IC50 [5]: 2.29 µg/mL
B9 |  |  |  | NC50 (neutralisation of reporter SARS-CoV-2, Vero E6 cells) [1]: 0.66 µg/mL
B10 |  | 58.1 | no binding (tested: one concentration, not printed) | binding result [6]: no binding (tested: one concentration, not printed)
B11 |  |  |  | NC50 (neutralisation of reporter SARS-CoV-2, Vero E6 cells) [1]: 0.82 µg/mL
B12 |  | 6.67 | no binding (tested: one concentration, not printed) | binding result [6]: no binding (tested: one concentration, not printed)
B13 |  | 40 | no binding (tested: one concentration, not printed) | binding result [6]: no binding (tested: one concentration, not printed)
B14 | no binding | 3.35 | no binding (tested: one concentration, not printed) | IC50 [5]: 14.8 µg/mL
B15 | no binding | 0.47 | no binding (tested: one concentration, not printed) | Kd [4]: 7.85 nM; koff [4]: 0.000499 s⁻¹; kon [4]: 63500 M⁻¹ s⁻¹; IC50 [5]: 17.7 µg/mL
B16 | no binding | 5.02 | no binding (tested: one concentration, not printed) | Kd [4]: 138 nM; koff [4]: 0.00137 s⁻¹; kon [4]: 9870 M⁻¹ s⁻¹; IC50 [5]: 14.5 µg/mL
B17 | no binding | 3.41 | no binding (tested: one concentration, not printed) | 
B18 | no binding | 7.82 | no binding (tested: one concentration, not printed) | Kd [4]: 7.16 nM; koff [4]: 0.000602 s⁻¹; kon [4]: 84100 M⁻¹ s⁻¹; IC50 [5]: 4.18 µg/mL
